In PMC8748658:

Target: L1-70-Myc
Assay: ELISA; purified L1-70-Myc coated in PBS on 96-well plates; purified Top1-HA at 0.1, 0.5, 1, 5 and 10 nM, 2 h at 37 °C; detection with rabbit anti-HA, TMB

B1: Top1-HA (enzyme)
chain: MSGDHLHNDSQIEADFRLNDSHKHKDKHKDREHRHKEHKKDKDKDREKSKHSNSEHKDSEKKHKEKEKTKHKDGSSEKHKDKHKDRDKERRKEEKIRAAGDAKIKKEKENGFSSPPRIKDEPEDDGYFAPPKEDIKPLKRLRDEDDADYKPKKIKTEDIKKEKKRKSEEEEDGKLKKPKNKDKDKKVAEPDNKKKKPKKEEEQKWKWWEEERYPEGIKWKFLEHKGPVFAPPYEPLPESVKFYYDGKVMKLSPKAEEVATFFAKMLDHEYTTKEIFRKNFFKDWRKEMTNDEKNTITNLSKCDFTQMSQYFKAQSEARKQMSKEEKLKIKEENEKLLKEYGFCVMDNHRERIANFKIEPPGLFRGRGNHPKMGMLKRRIMPEDIIINCSKDAKVPSPPPGHKWKEVRHDNKVTWLVSWTENIQGSIKYIMLNPSSRIKGEKDWQKYETARRLKKCVDKIRNQYREDWKSKEMKVRQRAVALYFIDKLALRAGNEKEEGETADTVGCCSLRVEHINLHPELDGQEYVVEFDFPGKDSIRYYNKVPVEKRVFKNLQLFMENKQPEDDLFDRLNTGILNKHLQDLMEGLTAKVFRTYNASITLQQQLKELTAPDENVPAKILSYNRANRAVAILCNHQRAPPKTFEKSMMNLQSKIDAKKDQLADARRDLKSAKADAKVMKDAKTKKVVESKKKAVQRLEEQLMKLEVQATDREENKQIALGTSKLNYLDPRITVAWCKKWGVPIEKIYNKTQREKFAWAIDMTDEDYEF
B1 showed a concentration of Top1-HA at saturation of 1 nM.
